Target: Prp43p-HIS (S. cerevisiae, UniProt P53131 1-767)
Assay: cell-based or functional assay

Chain of Prp43p-HIS (P53131 whole entry): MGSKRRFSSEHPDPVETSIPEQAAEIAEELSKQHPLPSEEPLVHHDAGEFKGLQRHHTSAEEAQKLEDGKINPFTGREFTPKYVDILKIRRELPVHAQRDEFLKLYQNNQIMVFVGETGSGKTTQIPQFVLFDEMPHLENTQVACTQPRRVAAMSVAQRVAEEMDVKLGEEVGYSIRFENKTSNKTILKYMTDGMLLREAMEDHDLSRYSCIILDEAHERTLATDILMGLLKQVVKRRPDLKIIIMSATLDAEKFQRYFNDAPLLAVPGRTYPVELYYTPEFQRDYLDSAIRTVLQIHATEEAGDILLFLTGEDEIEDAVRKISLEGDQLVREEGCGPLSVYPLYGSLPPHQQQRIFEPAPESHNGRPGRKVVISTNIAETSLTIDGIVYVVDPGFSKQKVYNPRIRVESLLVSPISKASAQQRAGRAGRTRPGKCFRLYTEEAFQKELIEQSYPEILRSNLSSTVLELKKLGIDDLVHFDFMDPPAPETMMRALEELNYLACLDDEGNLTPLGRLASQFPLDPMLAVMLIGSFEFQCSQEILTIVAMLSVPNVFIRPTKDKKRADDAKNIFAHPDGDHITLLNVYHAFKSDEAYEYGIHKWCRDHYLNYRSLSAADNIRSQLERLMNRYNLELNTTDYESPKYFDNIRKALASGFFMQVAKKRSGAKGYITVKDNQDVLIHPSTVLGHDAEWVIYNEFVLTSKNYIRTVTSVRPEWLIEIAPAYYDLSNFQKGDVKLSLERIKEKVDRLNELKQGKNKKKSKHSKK

B1: GST-PINX1-HIS (natural protein, human, UniProt Q96BK5 1-328, looked up)
chain: MSMLAERRRKQKWAVDPQNTAWSNDDSKFGQRMLEKMGWSKGKGLGAQEQGATDHIKVQVKNNHLGLGATINNEDNWIAHQDDFNQLLAELNTCHGQETTDSSDKKEKKSFSLEEKSKISKNRVHYMKFTKGKDLSSRSKTDLDCIFGKRQSKKTPEGDASPSTPEENETTTTSAFTIQEYFAKRMAALKNKPQVPVPGSDISETQVERKRGKKRNKEATGKDVESYLQPKAKRHTEGKPERAEAQERVAKKKSAPAEEQLRGPCWDQSSKASAQDAGDHVQPPEGRDFTLKPKKRRGKKKLQKPVEIAEDATLEETLVKKKKKKDSK
ATP hydrolysed by Prp43p-HIS after 60 min of incubation, with GST-PINX1-HIS against without (0.1 μM proteins, 100 μM ATP, 30°C): 9 fold

Source: publication PMC4066782, “The telomerase inhibitor Gno1p/PINX1 activates the helicase Prp43p during ribosome biogenesis” (Nucleic Acids Research, 2014)
